According to publication PMC6200926 (The Journal of Biological Chemistry, 2018):

Columns and labels:
[1] = target: T1, A/Thailand/1(KAN-1)/2004 HA globular head (Asp-55–Glu-271) (Influenza A virus …, strain); test: cell-based or functional assay
[2] = target: T2, A/Vietnam/1203/2004 HA globular head (Asp-55–Glu-271) (Influenza A virus A/Vietnam/1203/2004 …, UniProt Q5EP31, strain); test: cell-based or functional assay
[3] = target: A/Turkey/65596/2006 HA globular head (Asp-55–Glu-271) (Influenza A virus A/Turkey/65596/2006 …, strain); test: cell-based or functional assay
[4] = target: T1, A/Thailand/1(KAN-1)/2004 HA globular …; test: SPR; conditions: both partners purified
[5] = target: T2, A/Vietnam/1203/2004 HA globular head …; test: SPR; conditions: both partners purified
[6] = target: T3, A/Anhui/1/2005 HA globular head (Asp-55–Glu-271) (Influenza A virus A/Anhui/1/2005 (H5N1), UniProt Q1WDM0, strain); test: cell-based or functional assay
[7] = target: T4, A/Beijing/01/2003 HA globular head (Asp-55–Glu-271) (Influenza A virus A/Beijing/01/2003 …, UniProt A5YTS6, strain); test: cell-based or functional assay
[8] = target: T3, A/Anhui/1/2005 HA globular head …; test: SPR; conditions: both partners purified
[9] = target: T4, A/Beijing/01/2003 HA globular head …; test: SPR; conditions: both partners purified

B1: FLD21.140 (antibody, V domains shown)
VH: QVQLQESGPGLVKPSQTLSLTCTVSGGSISSGTYYWSWIRHHPGKGLEWIGYIYHSGSAYYNPSLESRVTMSVDTSKNQFSLKLSSVTAADTAIYYCARAENLLSPYLAEGFDPWGQGTLVTVSS
VL: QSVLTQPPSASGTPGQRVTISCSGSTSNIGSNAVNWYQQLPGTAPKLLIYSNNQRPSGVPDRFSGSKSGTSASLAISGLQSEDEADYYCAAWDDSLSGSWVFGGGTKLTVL
In the case of B1, the “neutralisation IC50, pseudovirus with the whole HA of this strain” value (“neutralisation IC50, pseudovirus” below) [1] is reported as 8 ng/mL, the “neutralisation IC50, pseudovirus” value [2] is reported as 1 ng/mL and the “neutralisation IC50, pseudovirus” value [3] is reported as 1 ng/mL.

B2: FLD21.140 Fab (Fab, V domains shown)
VH: QVQLQESGPGLVKPSQTLSLTCTVSGGSISSGTYYWSWIRHHPGKGLEWIGYIYHSGSAYYNPSLESRVTMSVDTSKNQFSLKLSSVTAADTAIYYCARAENLLSPYLAEGFDPWGQGTLVTVSS
VL: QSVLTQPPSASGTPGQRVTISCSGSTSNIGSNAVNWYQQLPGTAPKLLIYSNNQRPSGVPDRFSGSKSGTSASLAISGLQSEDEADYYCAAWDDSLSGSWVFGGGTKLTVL
For B2, the Kd [4] was 1 nM and the Kd [5] was 0.702 nM.

B3: AVFluIgG03 (antibody, V domains shown)
VH: EVQLLESGGGLVQPGGSLRVSCTNSGFTFSNYAMSWVRQAPGKGLEWVSAISGNGGSGTYYADSVKGRFTISRDNSKNTMYLQMNSLRAEDTAVYYCVRDDSYDGGGHYGLHNWFDSWGQGTLVTVSS
VL: SVLTQPPSVSGAPGQRVTISCTGSSSNIGAGYDVHWYQQLPGTAPKLLIYGNSNRPSGVPDRFSGSKSGTSASLAITGLQAEDEADYYCQSYDSSVVVFGGGTKLEIK
B3 was tested, and the “neutralisation IC50, pseudovirus” value [6] was 2 ng/mL and the “neutralisation IC50, pseudovirus” value [7] was 3 ng/mL.

B4: AVFluIgG03 Fab (Fab, V domains shown)
VH: EVQLLESGGGLVQPGGSLRVSCTNSGFTFSNYAMSWVRQAPGKGLEWVSAISGNGGSGTYYADSVKGRFTISRDNSKNTMYLQMNSLRAEDTAVYYCVRDDSYDGGGHYGLHNWFDSWGQGTLVTVSS
VL: SVLTQPPSVSGAPGQRVTISCTGSSSNIGAGYDVHWYQQLPGTAPKLLIYGNSNRPSGVPDRFSGSKSGTSASLAITGLQAEDEADYYCQSYDSSVVVFGGGTKLEIK
notes: source: cut from the purified IgG with Lys-C
Binder B4 has a Kd [8] of 12.6 nM and a Kd [9] of 25 nM.
